Test results from patent US20060140946A1.

Biological target: human lymphotoxin (TNFβ) (human) (UniProt P01374)
Assay: cell-based or functional assay

Sequence of human lymphotoxin (TNFβ) (human) (P01374 35-205 limits assumed): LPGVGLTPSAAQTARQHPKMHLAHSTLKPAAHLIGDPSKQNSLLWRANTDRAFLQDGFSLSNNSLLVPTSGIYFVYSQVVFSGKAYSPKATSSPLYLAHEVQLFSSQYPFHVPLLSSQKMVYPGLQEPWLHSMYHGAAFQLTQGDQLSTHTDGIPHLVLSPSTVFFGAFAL

## p75P-sf2 TNF receptor/IgG1 fusion protein (from UniProt P20333 23-204) (Fc fusion)
  concentration required to half-inhibit human TNFβ at 2 pM, WEHI 164 cytotoxicity assay: 31 pM
